From the supplement of paper PMC12042874
± gives the uncertainty stated by the source.

Assay: amyloid nucleation score (Sup35N fusion, yeast selection) (log enrichment); library NNK3; higher = more nucleation; inactive = no reads after selection
How it was run: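 DiMSum was used to calculate nucleation scores as log enrichment of output over input reads, centred on the mode score of non-aggregating sequences. Sequences with fewer than 100 input reads were not scored. Input and output came from Illumina sequencing of plasmid inserts in psi-negative yeast expressing peptides of 20 random codons fused to Sup35N, induced 24 hours with 100 μM copper sulfate and then grown 7 days at 30°C on medium lacking adenine and uracil.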

| Substance | amyloid nucleation score |
| --- | --- |
| GGSFREVVNRRTRVGEDP | inactive |
| LFTWKCDLGSRRAKGSGLGS | 1.42 ± 0.13 |
| FFLPSG | inactive |
| ASCQSSIVFRTGSSLATLCD | inactive |
| VWSTGRLLRGKSWELISNDT | inactive |
| VLLFLTFMYSLSFWSMLLRG | inactive |
| RFWLDYEGRNAYWMGITHVW | inactive |
| LFYAVSFQRYQANVFVVRGD | inactive |
| EFAGCKRRMRKGPIIVPADV | inactive |
| YIGRRNMPNFSSMWMWSQGK | inactive |
| TISGLNM | inactive |
| WILLCIRRRMFCRGMCTINN | inactive |
| LSMPMAAGCFKHMPCAA | -0.643 ± 1.7 |
| EVSHSVEQYFSFMCHHTWAP | inactive |
| LLNSM | inactive |
| KCMGVSWLSNIVRSIRVIIS | inactive |
| LMLGYLKYLYGAANRICYRS | inactive |
| RTFPLTLRSSHSPFKPLMFL | inactive |
| GSNFICTFRVGKGYRPVCLE | inactive |
| VTSNSDRT | inactive |
| LVDLRTVSYTLSQKMKFGGS | inactive |
| CLVTLVLTKFWCMCASSAVD | inactive |
| LSGKTMVFFPKSNMRNNTRS | inactive |

| Substance | amyloid nucleation score |
| --- | --- |
| PGRGLMRLYCYRFEIKTTEP | 0.82 ± 0.23 |
| QCHSLYSWNDGWC | inactive |
| PTSKGYVVYKETWVLDRSKM | 1.07 ± 0.17 |
| GLNLR | inactive |
| IRLFHEAIKGDLC | inactive |
| SYSQKKRHVSKSTGSRAWQA | inactive |
| LLLYLN | inactive |
| STWMNTDYGDTTV | -0.277 ± 0.96 |
| MYDLDHSFCTLLTEVRALMK | -0.396 ± 1.4 |
| TWRKGVSVLVLSGFVVTNQR | inactive |
| AVISNRFYEEKLYDATYLRL | inactive |
| MMPDYKPR | inactive |
| GRANGFQQIDLCEYHREYLN | inactive |
| GFSYM | inactive |
| CHASEWACYATLFLQT | inactive |
| SWPVCWDHIWQSWGLTTSAV | inactive |
| DVRIIAV | inactive |
| AKTSYQRN | inactive |
| LIAFA | 2.53 ± 0.069 |
| LPYTVQAVVIRVDKSYVSSV | inactive |
| LLIKAAFGKMVRCKFRLIEW | -0.454 ± 1.4 |
| GHQNRTP | inactive |
| CSLQWFMV | inactive |

| Substance | amyloid nucleation score |
| --- | --- |
| CYLVGLCLLFGVQVSGLPYR | 0.798 ± 0.26 |
| AVYCPINLLAF | inactive |
| LVCMEISSNFLATVCVEWIG | inactive |
| GFTFNGF | inactive |
| GWRRPNSYDLEAEFMRKSGG | inactive |
| DGRSFAVDAIVYCHLYR | 0.758 ± 0.11 |
| LTRRSRLWHMSSYTWKKDVI | 0.084 ± 0.5 |
| CELGNIVHS | inactive |
| QHKQVNGFTITYTLGHCYTY | inactive |
| RDVIRRVVRMHLQLYMFMVG | -0.135 ± 0.98 |
| HPIANVV | inactive |
| SLNWVGVCNMKSPVNSTQSI | 0.329 ± 0.67 |
| IYTVWMAKGVTPVQKGPSRY | inactive |
| ISALKQSS | inactive |
| RRFKYIGLRGTMHRLNYFGL | inactive |
| MTSQSMKVISWCDRHRQMNS | 1.03 ± 0.13 |
| LPTSFTSFNLKSLASMT | inactive |
| ADCNWVNNVMSVKGLMSVVM | inactive |
| MCDGFVVVNLILFWKVEMI | inactive |
| FELFKKGRSI | 0.898 ± 0.23 |
| LPYLKQ | inactive |
| EVDLLSVNPGVYWDLDWIWF | -0.292 ± 0.88 |
| FCLFLSCGDKSILGA | inactive |

| Substance | amyloid nucleation score |
| --- | --- |
| NVPGLSCNTSARLWRSSRLS | inactive |
| LMGTQVVFDDTDPYTEKGLL | inactive |
| RFCRSSWMYPVEGQVGHIRE | inactive |
| ASNYDYVYMPTWDKDRFSRY | inactive |
| ILCFGLLN | inactive |
| CCACWGINHSYGLSTEVSQY | inactive |
| ANCINRV | inactive |
| YVCGLRRKSLVGKLYSIGLS | inactive |
| DVALTWPCYVDTTKCQMIMY | inactive |
| RFGYKLFRSSVYGRGESYDY | inactive |
| GCYWSRLGVDHRMPMFIARD | inactive |
| IWFWKGICLRYTSRKGMNLR | 1.75 ± 0.11 |
| WLSDNSSNDLQYHYSSSKIM | inactive |
| PRDGVFLVKGDRPC | inactive |
| VKNFLGY | inactive |
| SCVDLPWQMRLRHRKCQFDG | inactive |
| LKDAHQWIYLW | -0.779 ± 0.88 |
| VFYGLYF | inactive |
| VLISVLSRLRCMSGGLYTPN | inactive |
| GCKRVVTTV | -0.606 ± 0.93 |
| TMIFMLVI | inactive |
| LEYVCMRH | inactive |
| GVIFEISVSCVQTFCPFHYL | 1.21 ± 0.093 |

| Substance | amyloid nucleation score |
| --- | --- |
| SDGKQQLFKENS | inactive |
| ISYNTVRYRYGFVYNRLLPW | inactive |
| TVPVSSCGGLRNEPHDVRFG | inactive |
| VPPVVSAP | 1.05 ± 0.12 |
| TAAYSLFIEVSCSQSTN | inactive |
| SIHCIYSWR | 1.27 ± 0.12 |
| EPGILLM | inactive |
| SVFCMLYLFWLSFLIVLLLM | 1.59 ± 0.13 |
| KGCNYVNNSTAMLSRRSFYS | inactive |
| GIFCYQWWRTNPNESLAR | inactive |
| ALEFRSTENTSSSG | -0.223 ± 0.73 |
| GCNYTVSTYILRVSDFTYYM | -0.585 ± 0.76 |
| ICSLCEHSFVRVNGMYWHRE | 2.02 ± 0.092 |
| CHPLGRCALWWCFVPHGRFA | inactive |
| ETSITHLGILAVLGCNNGSE | inactive |
| DSTDFRVLRGRRSRGEYVRG | inactive |
| CNCPPPPSSRYYSFSKAVYG | inactive |
| VFVTRYKTKTPCLMTVRKEL | inactive |
| RKDYGMLYFFLSSRKCTHAI | inactive |
| TYHWLNRGYRMGSLENRLLK | inactive |
| FHGFLYSAFSSDG | inactive |
| IKLVDLPCSLVNTGSTVNRE | inactive |
| LSCPLVYSTSSFIK | inactive |

| Substance | amyloid nucleation score |
| --- | --- |
| YPCERYHRPHDQQNVDLTNL | inactive |
| VIGGVEREQQDRLKL | inactive |
| WSGHIGVLRTTSSQQWRVRR | inactive |
| DFGSDSVDRIPRTGADNSI | inactive |
| SHNSHGYFLSVLVVMRMSGR | inactive |
| LKIWLRSYPYPLTGQKQRPK | inactive |
| HFSSYDTDRINAVPKIWTIR | inactive |
| MERVRGRRMGVIVAFDVDGW | 1.11 ± 0.19 |
| KAYISVIGKLDYQNFSMKRF | 2.41 ± 0.054 |
| PFFCTMITYNGLVYDIFWRG | inactive |
| DSYYFPRQGWMY | inactive |
| SFSFSKSNVSERDLCSTCTV | inactive |
| VMIKSC | inactive |
| NHNIHVNGFHFN | inactive |
| QICHRGEGFWPINSSIRKVV | inactive |
| IMVRGVRDS | inactive |
| CKRHLNYSVSRAKAEKINYL | inactive |
| IVYYGVTGLTRGFSEVRKIS | inactive |
| FRSVVWFCGRVLQTGCCGLN | inactive |
| VFNFFYAEMGLMIKFWIDNL | 1.08 ± 0.081 |
| YYFPWLYAKYSVVIINDMEP | 2.64 ± 0.05 |
| WDFRV | inactive |
| VLLTVECLFYSS | inactive |

| Substance | amyloid nucleation score |
| --- | --- |
| LSCVLTVGTKTLFRAQMTQV | inactive |
| GKSIKGYGHSVFTVVLTVGY | inactive |
| KLNAVYTRSAGWLSHQEM | inactive |
| KPKELSAHLNATM | inactive |
| NCTNFALVSNLASTRTIADW | inactive |
| VRQWSTFASLMYATENGVNN | inactive |
| SMKGNSWF | inactive |
| TARYMLSKYVTLCNDVSI | 0.984 ± 0.12 |
| VLVVPKQVTWEVGF | inactive |
| TFLNRIQWSKWILN | inactive |
| NFVQFSTTISFDHNCHMVGC | inactive |
| RFVAHG | inactive |
| NGWLVMLYIKLTGFFP | inactive |
| KIIYKGLYEHLIVMLNIINL | inactive |
| SLNKHR | inactive |
| QRELSNMVVISLVQAMLWFR | inactive |
| SVFQWHPFIESKGNLLSTVK | inactive |
| YSSVILVY | 0.156 ± 0.48 |
| FPYVLVSTPVSPPICW | inactive |
| IQLCTKIYSITKV | inactive |
| VNDVLASLTLCMWLVEWGMK | inactive |
| PRSCN | inactive |
